{"source": "paper PMC5420313", "target": "GST-Dyn2(DQR)_(motor) (D1406A/Q1407A/R1410A mutant of GST-Dyn2_(motor)) (human) (UniProt Q8NCM8)"}
{"substance": "GST-Dyn2(DQR)_(motor) (D1406A/Q1407A/R1410A mutant of GST-Dyn2_(motor)), Q8NCM8 1091-4307", "values": [{"measurement": "maximum velocity of microtubule gliding by the unstacked GST-Dyn2(DQR) (motor)", "value": 562, "unit": "nm/s"}]}
